Assay [1] deals with T1, MERS RBD-hFc (MERS-CoV (isolate EMC/2012)). Briefly: SPR (Biacore), hybridoma supernatant antibody captured, MERS RBD-hFc as analyte. On the technique in general: Surface plasmon resonance follows binding to a sensor surface in real time, without labels.
Assay [2] deals with T1, MERS RBD-hFc. Briefly: ELISA on coated MERS RBD-hFc, hybridoma supernatant 1:50, absorbance at 450 nm. For orientation: An ELISA detects its analyte on a solid surface through an enzyme-linked reagent.
Assay [3] deals with T1, MERS RBD-hFc. Put plainly: SPR Biacore, captured mAb, 37 C.
The target of assay [4] is T1, MERS RBD-hFc. Put plainly: SPR Biacore, captured mAb, 25 C.

Where a chain is given by its changes, count along the chain named. Some results are limits rather than exact numbers.

For orientation: Kd means the concentration at which binding is half-saturated. Usually t½ stands for how long it takes for the measured level to halve. A lower t½ goes with fast loss. The term koff denotes the first-order rate constant of dissociation. A lower koff goes with a long-lived complex. As a reminder, the kon is a measure of how fast the partners come together. High values mean fast association, low ones slow association.

B1: H1M15289N (antibody, V domains shown)
VH: QVQLQESGPGLVKPSETLSLTCTVSGGSISSYYWSWIRQPPGKGLEWIGYIYYSGSANYNPSLKSRVTISVDTSKNQFSLKLSSVTAADTAVYYCVRDRDLLLDHWGQGTLVTVSS
VL: EIVMTQSPATLSVSPGKRATLSCRASQSVSSNLAWYQQKPGQAPRLLIYGASTRTTGFPARFSGSGSGTDFTLTISSLQSEDFAVYYCQQYNNWPYTFGQGTMLEIK
In the assay with MERS RBD-hFc [1], B1 came in with a Kd of 669 pM and a t½ of at least 115 min. In the assay with MERS RBD-hFc [2], the “ELISA Binding” value is 2.73. In the assay with MERS RBD-hFc [3], binding was put at a Kd of 275 pM, the koff turned out to be 0.000126 s⁻¹, the kon is 459000 M⁻¹ s⁻¹ and the t1/2 came out at 92 min. In the assay with MERS RBD-hFc [4], this molecule displayed a Kd of 210 pM, an off-rate (koff) of 4.41e-05 s⁻¹, a kon of 210000 M⁻¹ s⁻¹ and a t1/2 of 262 min.

B2: H1M15267N (antibody, V domains shown)
VH: QVQLQESGPGLVKPSETLSLTCTVSGGSISSYYWSWIRQPPGKGLEWIGYIYYSGSPNYNPSLKSRVTISVDTSKNQFSLKLTSVTAADTAVYYCARSLNWGPPFDYWGQGTLVTVSS
VL: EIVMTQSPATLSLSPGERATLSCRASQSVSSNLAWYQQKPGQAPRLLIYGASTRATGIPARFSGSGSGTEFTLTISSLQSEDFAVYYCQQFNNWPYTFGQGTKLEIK
On to B2, for which, in the assay with MERS RBD-hFc [1], the dissociation constant Kd was found to be 328 pM and the t½ is 94.1 min. In addition, the “ELISA Binding” value in the assay with MERS RBD-hFc [2] is 2.62. In the assay with MERS RBD-hFc [3], the affinity, expressed as Kd, was 314 pM; the koff stood at 0.000745 s⁻¹; the kon came to 2.37e+06 M⁻¹ s⁻¹; the t1/2 turned out to be 16 min. In the assay with MERS RBD-hFc [4], this molecule came in with a Kd of 181 pM, a koff of 0.000153 s⁻¹, a kon of 843000 M⁻¹ s⁻¹ and a t1/2 of 75 min.

B3: H2aM15281N (antibody, V domains shown)
VH: QVQLVQSGAEVKKPGSSVKVSCKASKDTFSSYAISWVRQAPGQGLEWMGGIIPFFGTTTYEQKFQGRVTITTDESTRTAYMELSSLRSEDSAVYYCARDRPCISSAGTRYHYCVMDVWGQGTTVTVSS
VL: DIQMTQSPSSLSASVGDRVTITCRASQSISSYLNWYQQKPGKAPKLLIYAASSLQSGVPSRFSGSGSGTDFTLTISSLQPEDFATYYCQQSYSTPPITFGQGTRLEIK
Consider B3, for which, in the assay with MERS RBD-hFc [1], the dissociation constant (Kd) was 2770 pM and the t½ stood at 10.4 min. Moreover, the “ELISA Binding” value in the assay with MERS RBD-hFc [2] worked out at 2.54. In the assay with MERS RBD-hFc [3], this molecule had a Kd of 213 pM, a koff of 0.000543 s⁻¹, a kon of 2.55e+06 M⁻¹ s⁻¹ and a t1/2 of 21 min. In the assay with MERS RBD-hFc [4], binding was characterised by a dissociation constant (Kd) of 390 pM, the koff came to 0.000818 s⁻¹, the kon was 2.1e+06 M⁻¹ s⁻¹ and the t1/2 turned out to be 14 min.

B4: H2aM15272N (antibody, V domains shown)
VH: B3 VH with Q3R, K26G, G56V, E61A, K63N
VL: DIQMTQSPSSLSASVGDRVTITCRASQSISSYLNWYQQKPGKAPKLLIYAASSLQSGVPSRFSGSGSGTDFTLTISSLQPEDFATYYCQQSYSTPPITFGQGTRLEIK
In the assay with MERS RBD-hFc [1], B4 registered a dissociation constant (Kd) of 2720 pM and a t½ of 9.5 min. Besides, the “ELISA Binding” value in the assay with MERS RBD-hFc [2] turned out to be 2.52. In addition, in the assay with MERS RBD-hFc [3], the Kd amounted to 316 pM, the koff was 0.000634 s⁻¹, the kon is 2e+06 M⁻¹ s⁻¹ and the t1/2 worked out at 18 min. In the assay with MERS RBD-hFc [4], the Kd came out at 443 pM, the dissociation rate constant (koff) amounted to 0.000733 s⁻¹, the kon turned out to be 1.65e+06 M⁻¹ s⁻¹ and the t1/2 worked out at 16 min.

B5: H1M15277N (antibody, V domains shown)
V domain 1: EVQLLESGGGLVQPGGSLRLSCAASGFTFSSYAMSWVRQAPGKGLEWVSAISGRGGNTYYADSVKGRFTISRDNSKNTLFLQMNTLRAEDTAVYYCAKDRGFGFFDIWGRGTLATVSS
V domain 2: not shown
Take B5: in the assay with MERS RBD-hFc [1], the dissociation constant Kd was 1720 pM and the t½ is 11.1 min. The “ELISA Binding” value with MERS RBD-hFc [2] amounted to 2.68. For the same molecule, in the assay with MERS RBD-hFc [3], the affinity, expressed as Kd, was 671 pM; the koff is 0.00218 s⁻¹; the kon came to 3.24e+06 M⁻¹ s⁻¹; the t1/2 amounted to 5 min. For the same molecule, in the assay with MERS RBD-hFc [4], the affinity, expressed as Kd, was 346 pM; the koff was found to be 0.00091 s⁻¹; the kon stood at 2.63e+06 M⁻¹ s⁻¹; the t1/2 was 13 min.

B6: H2aM15278N (antibody, V domains shown)
VH: QVQLVQSGAEVKKPGASVKVSCKASGYTFTSHGISWVRQAPGQGFEWMGWIGTYNSNTDYAQNFQGRVTMTTDTSTSTAYMELRNLRSDDTAVYYCARERGPYYGMDVWGQGTTVTVSS
VL: EIVLAQSPGTLSLSPGERATLSCRASQSVNSNYLAWYQQKPGQAPRLLIYGASSRATGIPDRFSGSGSGTDFTLTISRLEPEDFAVYYCQQYGNSLTFGPGTKVDFK
As to B6, in the assay with MERS RBD-hFc [1], the dissociation constant Kd turned out to be 2050 pM and the t½ amounted to 13.5 min. Also, in the assay with MERS RBD-hFc [2], the “ELISA Binding” value worked out at 2.42. In addition, in the assay with MERS RBD-hFc [3], binding was characterised by a dissociation constant (Kd) of 519 pM, the koff stood at 0.00113 s⁻¹, the kon was 2.17e+06 M⁻¹ s⁻¹ and the t1/2 came out at 10 min. In addition, in the assay with MERS RBD-hFc [4], the equilibrium dissociation constant (Kd) stood at 506 pM, the koff came out at 0.000873 s⁻¹, the kon came out at 1.72e+06 M⁻¹ s⁻¹ and the t1/2 was 13 min.

B7: H2aM15279N (antibody, V domains shown)
VH: EVQLLESGGGLVQTGGSLRLSCAASGFTFSNYAMSWVRQAPGKGLEWVSAISDRGGSIYYADSVKGRFTISRDNSKNTKYLQMDSLRAEDTAVYYCAQDRGFGVFDYWGQGTLVTVSS
VL: DIQMTQSPSSLSASVGDRVTITCQASQDIGNYLNWFQQRPGKAPNLLIYGASNLETGVPSRFSGGGSGTDFTFTISSLQPEDIATYFCQQYDNLPFTFGPGTKVEIK
In the assay with MERS RBD-hFc [1], B7 yielded a Kd of 266 pM and a t½ of 96 min. The “ELISA Binding” value in the assay with MERS RBD-hFc [2] was 2.18. In the assay with MERS RBD-hFc [3], this molecule yielded a Kd of 320 pM, a dissociation rate constant (koff) of 0.000445 s⁻¹, an on-rate (kon) of 1.39e+06 M⁻¹ s⁻¹ and a t1/2 of 26 min. In the assay with MERS RBD-hFc [4], the Kd was found to be 102 pM, the koff amounted to 8.91e-05 s⁻¹, the kon was 870000 M⁻¹ s⁻¹ and the t1/2 amounted to 130 min.

B8: H2aM15287N (antibody, V domains shown)
VH: QLQLQESGPGLVKPSETLSLTCTVSGGSISSGNYYWGWIRQPPGKGLEWFGTIYYSGSTYYNPSLKSRVTISVDTSKNQFSLKLSSVTAADTAVYYCARRAAVGHFDYWGQGTLVTVSS
VL: DIQMTQSPSTLSASVGDRVTITCRASQSISTWLAWYQQKPGKAPKLLIYEASSLESGVPSRFSGSGFGTEFTLTISRLQPDDFATYFCQQYNTYWTFGQGTKVEIK
For B8, in the assay with MERS RBD-hFc [1], binding was characterised by a dissociation constant (Kd) of 245 pM and the t½ was at least 115 min. The “ELISA Binding” value in the assay with MERS RBD-hFc [2] was found to be 2.53. In the assay with MERS RBD-hFc [3], this molecule gave a Kd of 10900 pM, a koff of 0.00189 s⁻¹, a kon of 174000 M⁻¹ s⁻¹ and a t1/2 of 6 min. Also, in the assay with MERS RBD-hFc [4], the Kd was 6980 pM, the koff was 0.000442 s⁻¹, the association rate constant (kon) came out at 63300 M⁻¹ s⁻¹ and the t1/2 worked out at 26 min.

B9: H1M15280N (antibody, V domains shown)
VH: EVQLLESGGGLVQPGGSLRLSCAASGFTFSSYAMSWVRQAPGKGLEWVSAISGSGSSTYYADSVKGRFTISRDNSKNTLFLQMNSLRAEDTAVYYCAEGGDVDFDYWGQGTLVTVSS
VL: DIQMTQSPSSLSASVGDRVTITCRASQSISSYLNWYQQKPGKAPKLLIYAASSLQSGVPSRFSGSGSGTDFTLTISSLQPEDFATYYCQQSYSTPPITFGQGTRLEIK
In the assay with MERS RBD-hFc [1], B9 displayed a dissociation constant (Kd) of 6530 pM and a t½ of 7.4 min. The “ELISA Binding” value in the assay with MERS RBD-hFc [2] came out at 2.75. In the assay with MERS RBD-hFc [3], this molecule displayed a Kd of 13200 pM, a koff of 0.00657 s⁻¹, a kon of 497000 M⁻¹ s⁻¹ and a t1/2 of 1.8 min. Further, in the assay with MERS RBD-hFc [4], binding was put at a Kd of 18500 pM, the koff was 0.00525 s⁻¹, the kon worked out at 283000 M⁻¹ s⁻¹ and the t1/2 came out at 2.2 min.

B10: H2bM15292N (antibody, V domains shown)
VH: QVQLVQSGAEVKKPGSSVKVSCKASGGTFNNYAISWVRQAPGQGLEWMGGIIPFFGTTNYAQKFQDRVTITSDDSTITAYMELSRLRSEDTAVYYCARDEPRRDGYNYYHYYYMDVWGQGTTVTVSS
VL: DIQMTQSPSSLSASVGDRVTITCRASQSINSYLNWYQQKPGKAPNLLIYAASSLQSGVPSRFSGSGSGTDFTLTISSLHPEDFATYYCQQSYSTPPITFGQGTRLEIK
On to B10, for which, in the assay with MERS RBD-hFc [1], the affinity, expressed as Kd, was 593 pM and the t½ stood at 67.8 min. In addition, in the assay with MERS RBD-hFc [2], the “ELISA Binding” value was 2.78. In the assay with MERS RBD-hFc [3], this molecule displayed a Kd of 963 pM, a koff of 0.000524 s⁻¹, an association rate constant (kon) of 544000 M⁻¹ s⁻¹ and a t1/2 of 22 min. For the same molecule, in the assay with MERS RBD-hFc [4], binding was characterised by a dissociation constant (Kd) of 340 pM, the koff came out at 0.000155 s⁻¹, the kon stood at 457000 M⁻¹ s⁻¹ and the t1/2 was found to be 75 min.

B11: H1M15290N (antibody, V domains shown)
VH: QVQLVQSGAEVKKPGSSVKVSCKASGGTFSTYAISWVRQAPGQGLEWMGGIIPFFGTANYAQKFQGRVTITTDESTSTAYMELSSLRSEDTAVYYCAREGTYYDSLTGYYTHYYRMDVWGQGTTVTVSS
VL: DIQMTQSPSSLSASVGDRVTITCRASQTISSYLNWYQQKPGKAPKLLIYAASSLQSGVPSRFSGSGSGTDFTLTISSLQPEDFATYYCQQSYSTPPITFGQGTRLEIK
Consider B11, for which, in the assay with MERS RBD-hFc [1], the dissociation constant (Kd) turned out to be 778 pM and the t½ turned out to be 80.7 min. In the assay with MERS RBD-hFc [2], the “ELISA Binding” value is 2.76. Moreover, in the assay with MERS RBD-hFc [3], binding was put at a Kd of 1480 pM, the koff turned out to be 0.000984 s⁻¹, the kon came out at 666000 M⁻¹ s⁻¹ and the t1/2 was 12 min. In the assay with MERS RBD-hFc [4], this molecule displayed a Kd of 438 pM, a koff of 0.000211 s⁻¹, a kon of 482000 M⁻¹ s⁻¹ and a t1/2 of 55 min.

B12: H2aM15270N (antibody, V domains shown)
VH: EVQLLESGGGLEQPGGSLRLSCAASGFTFSSYAMIWVRQAPGKGLEWVSTISGSGVNTYYADSVKGRFTISRDNSKNTLHLQMNSLRAEDTAVYHCAKEGLDCANGVCYNYYGMDVWGQGTTVTVSS
VL: DIQMTQSPSSLSASVGDRVTITCRASQSINSFLNWYHQKPGKAPKFLIYSASNLQSGVPSRFSGSGSGTDFTLTISSLQPEDFSTYYCQQSYSIPLTFGGGTKVEIK
B12: in the assay with MERS RBD-hFc [1], binding was put at a Kd of 1790 pM and the t½ came out at 17.3 min. Further, in the assay with MERS RBD-hFc [2], the “ELISA Binding” value is 2.04. Moreover, in the assay with MERS RBD-hFc [3], binding was put at a Kd of 651 pM, the koff amounted to 0.00114 s⁻¹, the kon amounted to 1.75e+06 M⁻¹ s⁻¹ and the t1/2 is 10 min. In the assay with MERS RBD-hFc [4], binding was put at a Kd of 776 pM, the koff turned out to be 0.000605 s⁻¹, the kon came out at 779000 M⁻¹ s⁻¹ and the t1/2 amounted to 19 min.

The values above are taken from patent US20190351049A1 (Regeneron, published 2019).
